Reference: patent publication US20070212355A1 (priority 2005, published 2007)

Legend:
CD-1 mice [1] = assay: Gastrointestinal transit in post-operative inflammatory ileus model; format: in vivo; settings: 2 mg/kg one hour before surgery; transit 48 hr after operation, 45 minutes; FIG. 5
Description: On the day of study, upper gastrointestinal transit was measured using the FITC-dextran method. This method provides both, a measure of gastrointestinal transit and a readout of the pattern of distribution of the test meal along the gastrointestinal tract. Mice were fed a test meal of […] of FITC-dextran solution (5 mg/ml of 70,000 molecular weight dextran conjugated to fluorescein-isothiocyanate in 0.5% methylcellulose/deionized water) administered intragastrically by an 18 gauge curved feeding tube. Following oral administration of the FITC-dextran test meal, mice were returned to their home cages. It was shown that a 30 min test period was the optimum duration for detecting accelerated transit, while a 45 min test period was optimum for detecting delayed transit. Following the appropriate test period, mice were sacrificed by carbon dioxide exposure. The entire gastrointestinal tract from the lower esophageal sphincter to the terminal colon was removed. […] Aliquots of the cleared supernatant were read in duplicate on a 96-well fluorescence plate reader to quantify the magnitude of the fluorescent signal in each segment of bowel. […] The GC is calculated in the lower panel for statistical comparison. […]
All mice received an oral test meal of FITC-dextran 48 hr after the operation. Gastrointestinal transit was determined 45 minutes after oral feeding. […]

CD-1 mice [2] = assay: Myeloperoxidase histochemistry of intestinal muscularis, post-operative inflammatory ileus; format: in vivo; settings: 2 mg/kg one hour before surgery; tissue 48 hr after operation; FIG. 6, 7
Description: Myeloperoxidase histochemistry was performed on tissues harvested from the mid-small bowel of the mice 48 hr after the operation.
Briefly, segments of mid-small bowel were collected from the centrifuge tubes described in Example 12. Whole mounts of the muscle layer were prepared by pinning the tissue flat in a Sylgard® lined Petri dish and stretching the tissue to 2 times its length and 1.5 times its width. The mucosa was removed by fine dissection. The muscularis whole mounts were then fixed with 100% ethanol for 1 hr, washed 3 times with PBS, and incubated for 20 min in PBS containing 0.1% hydrogen peroxide and 1 mg/ml Hanker-Yates reagent. Following a second wash with PBS, the whole mounts were mounted on glass slides, cover-slipped, and viewed on an optical microscope. Myeloperoxidase containing leukocytes were counted in 6 to 8 adjacent 200× optical fields of view and the mean cell counts were calculated and recorded.

B1: SEQ ID NO: 80: human A2G-GLP2 peptide in murine IgG2a scaffold (protein)
chain: HGDGSFSDEMNTILDNLAARDFINWLIQTKITDGSGGGSGTTVTVSAEPRGPTIKPCPPCKCPAPNAAGGPSVFIFPPKIKDVLMISLSPIVTCVVVDVSEDDPDVQISWFVNNVEVHTAQTQTHREDYNSTLRVVSALPIQHQDWMSGKEFKCKVNNKDLPAPIERTISKPKGSVRAPQVYVLPPPEEEMTKKQVTLTCMVTDFMPEDIYVEWTNNGKTELNYKNTEPVLDSDGSYFMYSKLRVEKKNWVERNSYSCSVVHEGLHNHHTTKSFSRTPGK
modifications: Human A2G-GLP2 peptide in murine IgG2a scaffold
effect on surgically induced delay in gastrointestinal transit (CD-1 mice [1]): significant improvement in transit | number of MPO-positive leukocytes infiltrating small intestinal muscle layer (CD-1 mice [2]): significantly reduced the number of infiltrating cells
